Target: T1, FEZ1 (amino acids 1-308), EmGFP-tagged (UniProt Q99689 1-308)
T1 construct: FEZ1, amino acids 1-308; plasmid as described in Chua et al., 2012; also called truncated FEZ1 lacking its C terminus; source: HEK293, transfected, in lysate
T1 sequence (looked up): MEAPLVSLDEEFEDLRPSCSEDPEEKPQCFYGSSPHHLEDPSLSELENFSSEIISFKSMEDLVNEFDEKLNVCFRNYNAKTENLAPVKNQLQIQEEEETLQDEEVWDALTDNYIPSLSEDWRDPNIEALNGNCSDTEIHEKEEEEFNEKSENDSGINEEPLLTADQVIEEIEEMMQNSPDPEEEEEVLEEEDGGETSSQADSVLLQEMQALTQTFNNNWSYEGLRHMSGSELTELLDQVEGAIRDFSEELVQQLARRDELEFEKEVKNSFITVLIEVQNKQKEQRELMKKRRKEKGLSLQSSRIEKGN
Experiment: co-IP; HEK293 cells co-expressing the two tagged proteins, 24 h after transfection; lysis and washes in 50 mM HEPES, 150 mM NaCl, 1 mM EDTA, 1% Triton X-100, pH 7.2; GFP-Trap agarose beads 1-3 h at 4°C; immunoblot
Details: partners not purified

B1: collapsin response mediator protein 1 (CRMP1), full-length, FLAG-tagged (natural protein)
chain: not shown
notes: CRMP1, human cDNA, full-length, in pFLAG-CMV2; also called FLAG-CRMP1; source: HEK293, transfected, in lysate
- fold change of co-precipitated CRMP1 against full-length FEZ1: ~3 fold

— PMC8174033, “FEZ1 Forms Complexes with CRMP1 and DCC to Regulate Axon and Dendrite Development” (eNeuro, 2021)
